4 sequences from US10562947B2, “Compositions and methods for preventing or treating diseases, conditions or processes characterized by aberrant fibroblast proliferation and extracellular matrix deposition” (MOERAE MATRIX, INC., priority 2011, dated 2020) can be followed below.

What all share (test): Kinase Profiling Assay
Common to all, as to format: biochemical
Conditions in all cases: 100 μM peptide

For one assay, the target named is EphA2(h) (Homo sapiens, UniProt P29317). The method in brief:
(§1)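 In duplicate, the activities of 266 available human kinases were determined with MK2 inhibitory peptides present, as a measure of peptide selectivity.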

Another assay deals with AMPKα2(h) (Homo sapiens, UniProt P54646). The essentials:
as §1

The next assay concerns the target CDK9/cyclin T1(h) (Homo sapiens, UniProt P50750). The method in brief:
as §1

The target in another assay is T1, Ret(V804M)(h) (Homo sapiens, UniProt P07949, V804M).
T1 construct: purchased Millipore (IC50 Profiler Express service)
The method in brief:
as §1

Another assay has as its target EGFR(L861Q)(h) (Homo sapiens, UniProt P00533, L861Q). The method in brief: as §1
A further assay has as its target T2, PTK5(h) (Homo sapiens, UniProt P42685).
T2 construct: purchased Millipore (IC50 Profiler Express service)
The method in brief:
as §1

In the next assay the target is EGFR(h) (Homo sapiens, UniProt P00533). The method in brief:
as §1

The target in another assay is Fes(h) (Homo sapiens, UniProt P07332). The method in brief: as §1
Another assay deals with T3, NEK2(h) (Homo sapiens, UniProt P51955).
T3 sequence (P51955 1-445): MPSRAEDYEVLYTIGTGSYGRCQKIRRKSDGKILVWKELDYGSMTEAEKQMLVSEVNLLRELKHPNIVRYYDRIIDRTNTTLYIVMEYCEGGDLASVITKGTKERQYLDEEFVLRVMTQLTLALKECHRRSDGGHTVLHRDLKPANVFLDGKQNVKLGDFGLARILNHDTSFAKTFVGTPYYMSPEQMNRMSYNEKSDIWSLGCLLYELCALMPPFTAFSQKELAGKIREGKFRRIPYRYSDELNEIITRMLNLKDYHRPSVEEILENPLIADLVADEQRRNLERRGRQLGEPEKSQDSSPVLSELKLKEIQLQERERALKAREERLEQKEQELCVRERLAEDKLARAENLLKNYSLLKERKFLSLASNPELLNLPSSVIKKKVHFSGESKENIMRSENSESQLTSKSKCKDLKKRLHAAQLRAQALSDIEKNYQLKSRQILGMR
The essentials:
as §1

Another assay concerns the target FGFR1(V561M)(h) (Homo sapiens, UniProt P11362, V561M). The method in brief: as §1
Another assay concerns the target Mnk2(h) (Homo sapiens, UniProt Q9HBH9). The essentials:
as §1

Another assay has as its target CaMKIIδ(h) (Homo sapiens, UniProt Q13557). The method in brief: as §1
The target in the next assay is T4, ZAP-70(h) (Homo sapiens, UniProt P43403).
T4 sequence (P43403 1-619): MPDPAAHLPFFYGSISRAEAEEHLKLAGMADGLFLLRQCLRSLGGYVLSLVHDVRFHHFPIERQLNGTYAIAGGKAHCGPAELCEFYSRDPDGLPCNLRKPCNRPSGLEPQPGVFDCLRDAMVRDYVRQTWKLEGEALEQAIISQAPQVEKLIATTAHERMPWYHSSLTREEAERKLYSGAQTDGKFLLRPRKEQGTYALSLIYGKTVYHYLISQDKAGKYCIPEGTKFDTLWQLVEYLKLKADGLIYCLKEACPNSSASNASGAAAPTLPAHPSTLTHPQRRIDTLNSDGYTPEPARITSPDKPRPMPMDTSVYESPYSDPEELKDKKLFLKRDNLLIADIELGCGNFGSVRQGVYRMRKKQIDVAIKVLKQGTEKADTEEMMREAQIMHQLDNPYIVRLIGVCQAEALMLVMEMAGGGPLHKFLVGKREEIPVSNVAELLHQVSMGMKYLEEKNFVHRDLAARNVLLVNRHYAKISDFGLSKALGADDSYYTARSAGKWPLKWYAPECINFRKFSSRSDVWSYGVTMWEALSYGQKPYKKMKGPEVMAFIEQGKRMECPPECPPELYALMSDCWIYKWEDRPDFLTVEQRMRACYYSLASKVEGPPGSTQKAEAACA
The essentials: as §1

The next assay has as its target T5, Haspin(h) (Homo sapiens, UniProt Q8TF76).
T5 construct: purchased Millipore
T5 sequence (Q8TF76 1-798): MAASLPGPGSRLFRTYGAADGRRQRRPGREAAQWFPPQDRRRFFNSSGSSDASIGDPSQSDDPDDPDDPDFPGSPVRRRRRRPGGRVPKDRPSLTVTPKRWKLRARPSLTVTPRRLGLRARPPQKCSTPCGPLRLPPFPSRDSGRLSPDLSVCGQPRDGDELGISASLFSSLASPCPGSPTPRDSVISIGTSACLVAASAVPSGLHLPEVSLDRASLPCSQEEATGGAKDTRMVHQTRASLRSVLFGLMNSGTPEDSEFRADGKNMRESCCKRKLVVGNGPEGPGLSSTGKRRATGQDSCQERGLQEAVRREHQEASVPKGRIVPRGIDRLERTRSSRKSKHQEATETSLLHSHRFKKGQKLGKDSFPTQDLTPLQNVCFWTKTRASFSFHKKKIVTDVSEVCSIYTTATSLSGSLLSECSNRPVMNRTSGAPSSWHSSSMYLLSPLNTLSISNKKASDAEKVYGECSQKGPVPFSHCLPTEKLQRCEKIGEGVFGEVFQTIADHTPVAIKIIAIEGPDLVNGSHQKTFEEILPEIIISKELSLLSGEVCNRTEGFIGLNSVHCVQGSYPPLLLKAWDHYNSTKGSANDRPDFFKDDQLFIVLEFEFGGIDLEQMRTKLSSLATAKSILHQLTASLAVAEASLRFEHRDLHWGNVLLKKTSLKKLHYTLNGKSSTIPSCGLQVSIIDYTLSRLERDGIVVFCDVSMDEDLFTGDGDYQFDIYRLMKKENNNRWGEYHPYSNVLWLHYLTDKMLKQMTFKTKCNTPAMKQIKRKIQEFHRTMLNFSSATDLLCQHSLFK
The essentials:
as §1

The target in another assay is PAK5(h) (Homo sapiens, UniProt Q9P286). The method in brief: as §1
The target of another assay is ACK1(h) (Homo sapiens, UniProt Q07912). The essentials: as §1
Sequence of ACK1(h) (Q07912 whole entry): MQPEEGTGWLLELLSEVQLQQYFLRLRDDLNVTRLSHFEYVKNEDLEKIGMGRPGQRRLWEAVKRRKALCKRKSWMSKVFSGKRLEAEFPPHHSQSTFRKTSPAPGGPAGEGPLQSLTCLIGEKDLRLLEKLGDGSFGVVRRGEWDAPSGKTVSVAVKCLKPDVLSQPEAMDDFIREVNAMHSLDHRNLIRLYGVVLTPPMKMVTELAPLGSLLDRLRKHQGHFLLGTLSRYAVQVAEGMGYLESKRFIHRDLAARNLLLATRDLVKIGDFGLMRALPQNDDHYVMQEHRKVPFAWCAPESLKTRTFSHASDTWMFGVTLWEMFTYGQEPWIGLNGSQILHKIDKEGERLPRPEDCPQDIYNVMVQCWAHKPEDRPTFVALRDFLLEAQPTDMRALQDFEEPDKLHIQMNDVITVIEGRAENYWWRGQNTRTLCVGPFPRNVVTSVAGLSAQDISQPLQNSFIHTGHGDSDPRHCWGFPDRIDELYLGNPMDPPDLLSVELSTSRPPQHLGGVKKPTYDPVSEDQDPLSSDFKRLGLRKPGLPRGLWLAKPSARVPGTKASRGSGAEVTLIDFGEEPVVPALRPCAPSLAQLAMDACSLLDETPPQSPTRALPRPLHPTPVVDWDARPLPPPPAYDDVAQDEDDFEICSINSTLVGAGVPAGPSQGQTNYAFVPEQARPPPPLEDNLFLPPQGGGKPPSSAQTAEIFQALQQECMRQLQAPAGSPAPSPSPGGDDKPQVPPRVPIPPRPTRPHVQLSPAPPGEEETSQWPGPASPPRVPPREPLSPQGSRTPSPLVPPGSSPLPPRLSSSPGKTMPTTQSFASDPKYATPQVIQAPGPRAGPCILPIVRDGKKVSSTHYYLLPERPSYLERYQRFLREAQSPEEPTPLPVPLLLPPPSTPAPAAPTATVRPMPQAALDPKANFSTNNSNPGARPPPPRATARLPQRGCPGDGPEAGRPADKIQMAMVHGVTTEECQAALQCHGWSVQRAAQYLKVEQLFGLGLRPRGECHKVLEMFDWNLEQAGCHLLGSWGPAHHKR

Sequence of Fes(h) (P07332 whole entry): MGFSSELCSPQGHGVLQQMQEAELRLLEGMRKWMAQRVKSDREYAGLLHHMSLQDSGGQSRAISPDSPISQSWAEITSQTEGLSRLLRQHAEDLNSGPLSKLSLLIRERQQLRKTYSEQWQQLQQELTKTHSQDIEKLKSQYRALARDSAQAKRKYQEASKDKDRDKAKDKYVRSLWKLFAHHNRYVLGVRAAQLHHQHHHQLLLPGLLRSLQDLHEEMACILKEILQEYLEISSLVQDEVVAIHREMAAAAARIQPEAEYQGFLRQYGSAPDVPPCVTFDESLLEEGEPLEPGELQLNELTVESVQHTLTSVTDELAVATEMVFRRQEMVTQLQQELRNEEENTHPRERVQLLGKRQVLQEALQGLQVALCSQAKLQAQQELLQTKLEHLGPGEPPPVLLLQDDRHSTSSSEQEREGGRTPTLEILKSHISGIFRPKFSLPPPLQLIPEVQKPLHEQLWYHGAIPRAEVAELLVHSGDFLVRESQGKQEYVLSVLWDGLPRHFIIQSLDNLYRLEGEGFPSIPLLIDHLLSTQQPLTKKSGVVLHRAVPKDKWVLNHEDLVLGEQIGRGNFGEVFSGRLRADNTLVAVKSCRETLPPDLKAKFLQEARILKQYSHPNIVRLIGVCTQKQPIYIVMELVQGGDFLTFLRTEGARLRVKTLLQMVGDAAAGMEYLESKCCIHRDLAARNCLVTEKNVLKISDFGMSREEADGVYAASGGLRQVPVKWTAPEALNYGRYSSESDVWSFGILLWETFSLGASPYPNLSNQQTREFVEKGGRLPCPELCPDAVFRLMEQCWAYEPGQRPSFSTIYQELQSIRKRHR
Sequence of CaMKIIδ(h) (Q13557 whole entry): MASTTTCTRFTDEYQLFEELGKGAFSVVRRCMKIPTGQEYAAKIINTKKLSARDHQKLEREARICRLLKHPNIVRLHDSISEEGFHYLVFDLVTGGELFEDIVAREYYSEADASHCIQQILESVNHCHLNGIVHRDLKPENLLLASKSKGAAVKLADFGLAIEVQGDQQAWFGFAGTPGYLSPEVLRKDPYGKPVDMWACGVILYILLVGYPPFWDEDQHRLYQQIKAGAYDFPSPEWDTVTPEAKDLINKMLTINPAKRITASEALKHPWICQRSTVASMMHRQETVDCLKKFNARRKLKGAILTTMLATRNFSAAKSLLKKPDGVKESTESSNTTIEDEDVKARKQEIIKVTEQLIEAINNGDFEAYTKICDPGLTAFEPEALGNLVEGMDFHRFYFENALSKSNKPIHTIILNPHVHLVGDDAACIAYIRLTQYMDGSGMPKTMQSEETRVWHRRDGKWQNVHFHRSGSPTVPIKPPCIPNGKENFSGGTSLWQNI
Sequence of Mnk2(h) (Q9HBH9 whole entry): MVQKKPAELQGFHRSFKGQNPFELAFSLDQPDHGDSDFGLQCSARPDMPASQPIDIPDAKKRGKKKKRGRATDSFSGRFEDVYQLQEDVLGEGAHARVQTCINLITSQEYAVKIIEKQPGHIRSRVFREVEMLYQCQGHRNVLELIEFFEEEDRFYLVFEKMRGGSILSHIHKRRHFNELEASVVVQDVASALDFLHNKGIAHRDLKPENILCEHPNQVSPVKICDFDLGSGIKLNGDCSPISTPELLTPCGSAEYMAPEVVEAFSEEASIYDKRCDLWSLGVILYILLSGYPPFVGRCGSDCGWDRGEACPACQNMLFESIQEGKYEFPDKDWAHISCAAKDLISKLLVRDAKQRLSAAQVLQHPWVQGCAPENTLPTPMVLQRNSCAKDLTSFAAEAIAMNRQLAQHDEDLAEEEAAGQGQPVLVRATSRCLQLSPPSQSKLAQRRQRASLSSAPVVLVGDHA
Sequence of PAK5(h) (Q9P286 whole entry): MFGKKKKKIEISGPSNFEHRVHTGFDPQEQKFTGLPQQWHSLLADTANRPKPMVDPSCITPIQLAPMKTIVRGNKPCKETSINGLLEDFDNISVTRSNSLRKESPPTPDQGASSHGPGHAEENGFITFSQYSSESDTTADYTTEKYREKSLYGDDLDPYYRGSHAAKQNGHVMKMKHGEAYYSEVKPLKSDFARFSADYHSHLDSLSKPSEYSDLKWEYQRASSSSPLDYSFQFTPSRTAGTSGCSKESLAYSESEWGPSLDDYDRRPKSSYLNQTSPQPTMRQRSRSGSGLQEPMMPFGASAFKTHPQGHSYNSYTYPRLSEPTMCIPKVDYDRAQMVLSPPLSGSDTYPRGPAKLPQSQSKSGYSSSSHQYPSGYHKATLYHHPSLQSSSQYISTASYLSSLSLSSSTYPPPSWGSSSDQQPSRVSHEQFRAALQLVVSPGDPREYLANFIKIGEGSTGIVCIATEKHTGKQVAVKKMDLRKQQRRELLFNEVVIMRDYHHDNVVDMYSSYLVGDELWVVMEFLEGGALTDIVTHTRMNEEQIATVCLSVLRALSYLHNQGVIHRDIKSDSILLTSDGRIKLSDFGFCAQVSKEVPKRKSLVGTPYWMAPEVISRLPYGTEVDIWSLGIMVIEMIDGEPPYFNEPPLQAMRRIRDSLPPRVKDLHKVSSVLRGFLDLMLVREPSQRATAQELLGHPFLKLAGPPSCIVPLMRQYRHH
T2 sequence (P42685 whole entry): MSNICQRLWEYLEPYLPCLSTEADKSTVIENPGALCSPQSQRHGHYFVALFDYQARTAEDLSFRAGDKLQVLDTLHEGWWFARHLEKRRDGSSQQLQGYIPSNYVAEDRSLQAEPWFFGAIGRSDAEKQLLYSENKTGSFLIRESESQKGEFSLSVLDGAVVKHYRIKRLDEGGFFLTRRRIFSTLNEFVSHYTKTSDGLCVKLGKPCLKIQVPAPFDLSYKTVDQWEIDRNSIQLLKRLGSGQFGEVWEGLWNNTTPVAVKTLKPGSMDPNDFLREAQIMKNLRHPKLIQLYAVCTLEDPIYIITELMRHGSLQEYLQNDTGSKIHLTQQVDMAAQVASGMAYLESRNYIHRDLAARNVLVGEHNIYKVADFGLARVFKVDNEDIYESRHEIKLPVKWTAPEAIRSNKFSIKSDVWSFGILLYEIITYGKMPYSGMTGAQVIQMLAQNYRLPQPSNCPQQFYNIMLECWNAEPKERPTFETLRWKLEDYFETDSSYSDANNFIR
Sequence of FGFR1(V561M)(h) (P11362 22-822 V561M): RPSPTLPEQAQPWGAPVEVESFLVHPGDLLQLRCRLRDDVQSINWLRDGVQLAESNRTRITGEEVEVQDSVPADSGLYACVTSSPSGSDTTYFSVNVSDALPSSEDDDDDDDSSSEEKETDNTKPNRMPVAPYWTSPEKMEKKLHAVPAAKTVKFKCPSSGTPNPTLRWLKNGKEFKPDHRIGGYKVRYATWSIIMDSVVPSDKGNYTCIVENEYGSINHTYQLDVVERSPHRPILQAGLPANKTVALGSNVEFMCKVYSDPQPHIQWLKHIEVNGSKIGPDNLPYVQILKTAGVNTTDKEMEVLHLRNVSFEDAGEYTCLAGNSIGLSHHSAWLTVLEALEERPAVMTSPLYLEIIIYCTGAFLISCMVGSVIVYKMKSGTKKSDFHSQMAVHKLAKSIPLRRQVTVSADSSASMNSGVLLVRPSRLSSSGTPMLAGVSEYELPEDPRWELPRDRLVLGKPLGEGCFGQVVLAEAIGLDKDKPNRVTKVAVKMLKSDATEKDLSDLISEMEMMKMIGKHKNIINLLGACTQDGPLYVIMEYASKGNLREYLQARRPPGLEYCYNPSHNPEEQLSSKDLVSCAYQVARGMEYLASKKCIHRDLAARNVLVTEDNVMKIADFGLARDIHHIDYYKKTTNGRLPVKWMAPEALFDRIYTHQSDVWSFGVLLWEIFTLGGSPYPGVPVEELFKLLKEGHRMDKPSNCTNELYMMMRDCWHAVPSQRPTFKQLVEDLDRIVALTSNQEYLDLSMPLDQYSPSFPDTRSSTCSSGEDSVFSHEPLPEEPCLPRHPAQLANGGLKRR

With FAKLAARLYRKALARQLGVAA [MMI-0300], the “EphA2(h) % activity” value with EphA2(h) is 31%. Also, the “AMPKα2(h) % activity” value with AMPKα2(h) is 54%. Further, in the assay with CDK9/cyclin T1(h), the “CDK9/cyclin T1(h) % activity” value stood at 91%. Further, in the assay with Ret(V804M)(h), the “Ret(V804M)(h) % activity” value worked out at 95%. In the assay with EGFR(L861Q)(h), the “EGFR(L861Q)(h) % activity” value is reported as 25%. For the same sequence, the “PTK5(h) % activity” value in the assay with PTK5(h) stood at 132%. Further, in the assay with EGFR(h), the “EGFR(h) % activity” value worked out at 21%. In the assay with Fes(h), the “Fes(h) % activity” value is recorded as 20%. Further, in the assay with NEK2(h), the “NEK2(h) % activity” value stood at 78%. Further, the “FGFR1(V561M)(h) % activity” value with FGFR1(V561M)(h) worked out at 74%. In addition, the “Mnk2(h) % activity” value with Mnk2(h) is 89%. The “CaMKIIδ(h) % activity” value in the assay with CaMKIIδ(h) is 1%. In addition, the “ZAP-70(h) % activity” value with ZAP-70(h) amounted to 75%. The “Haspin(h) % activity” value in the assay with Haspin(h) came out at 48%. For the same sequence, the “PAK5(h) % activity” value with PAK5(h) turned out to be 110%.
Consider KAFAKLAARLYRKALARQLGVAA [MMI-0400], for which the “EphA2(h) % activity” value with EphA2(h) stood at 17%. For the same sequence, in the assay with AMPKα2(h), the “AMPKα2(h) % activity” value is reported as 58%. Moreover, the “CDK9/cyclin T1(h) % activity” value with CDK9/cyclin T1(h) is reported as 235%. Besides, the “Ret(V804M)(h) % activity” value with Ret(V804M)(h) was 87%. In addition, the “EGFR(L861Q)(h) % activity” value with EGFR(L861Q)(h) was determined as 22%. Besides, the “PTK5(h) % activity” value with PTK5(h) is 129%. Also, in the assay with EGFR(h), the “EGFR(h) % activity” value was 16%. Further, the “Fes(h) % activity” value in the assay with Fes(h) was 16%. The “NEK2(h) % activity” value in the assay with NEK2(h) turned out to be 61%. The “FGFR1(V561M)(h) % activity” value with FGFR1(V561M)(h) was determined as 74%. Besides, in the assay with Mnk2(h), the “Mnk2(h) % activity” value is listed as 86%. For the same sequence, in the assay with CaMKIIδ(h), the “CaMKIIδ(h) % activity” value came out at 2%. In addition, the “ZAP-70(h) % activity” value with ZAP-70(h) amounted to 33%. In addition, the “ACK1(h) % activity” value with ACK1(h) is 95%. The “Haspin(h) % activity” value with Haspin(h) is reported as 36%.
With “HRRIKAWLKKIKALARQLGVAA (Mammalian) [MMI-0500]”, the “AMPKα2(h) % activity” value with AMPKα2(h) came out at 9%. For the same sequence, the “CDK9/cyclin T1(h) % activity” value with CDK9/cyclin T1(h) worked out at 6%. The “Ret(V804M)(h) % activity” value in the assay with Ret(V804M)(h) amounted to 36%. In addition, in the assay with EGFR(L861Q)(h), the “EGFR(L861Q)(h) % activity” value was 15%. Besides, the “PTK5(h) % activity” value with PTK5(h) is recorded as 96%. In addition, the “EGFR(h) % activity” value in the assay with EGFR(h) was −1%. Further, the “Fes(h) % activity” value with Fes(h) is listed as 23%. In the assay with NEK2(h), the “NEK2(h) % activity” value is recorded as 0%. Moreover, in the assay with Mnk2(h), the “Mnk2(h) % activity” value is on record as 6%. Also, in the assay with CaMKIIδ(h), the “CaMKIIδ(h) % activity” value is reported as 1%. Besides, in the assay with ZAP-70(h), the “ZAP-70(h) % activity” value is 1%. The “ACK1(h) % activity” value with ACK1(h) came to 64%. For the same sequence, the “Haspin(h) % activity” value in the assay with Haspin(h) worked out at 25%. Also, in the assay with PAK5(h), the “PAK5(h) % activity” value was determined as 125%.
For the sequence “YARAAARQARAKALNRQLGVA (Mammalian) [MMI-0200]”, the “EphA2(h) % activity” value in the assay with EphA2(h) is given as 95%. For the same sequence, in the assay with AMPKα2(h), the “AMPKα2(h) % activity” value turned out to be 88%. In addition, the “EGFR(L861Q)(h) % activity” value with EGFR(L861Q)(h) came to 74%. In addition, the “PTK5(h) % activity” value in the assay with PTK5(h) was 108%. In the assay with EGFR(h), the “EGFR(h) % activity” value is on record as 83%. For the same sequence, the “Fes(h) % activity” value in the assay with Fes(h) was found to be 74%. For the same sequence, the “NEK2(h) % activity” value in the assay with NEK2(h) is on record as 97%. For the same sequence, the “FGFR1(V561M)(h) % activity” value in the assay with FGFR1(V561M)(h) is reported as 72%. For the same sequence, the “CaMKIIδ(h) % activity” value with CaMKIIδ(h) was found to be 2%. The “ZAP-70(h) % activity” value with ZAP-70(h) was 58%. The “ACK1(h) % activity” value with ACK1(h) is recorded as 97%. The “Haspin(h) % activity” value in the assay with Haspin(h) amounted to 71%. The “PAK5(h) % activity” value with PAK5(h) stood at 100%.
